Columns and labels:
Settings in all cases: both partners purified
[1] = target: T1, STK4 (residues 1–487) K59R (human, UniProt Q13043 1-487, K59R); test: ITC; MicroCal PEAQ-ITC, 25 °C; 20 mM Tris-HCl pH 7.5, 100 mM NaCl, 1 mM DTT; ~50 μM in the cell, ~500 μM in the syringe; one-site binding model
T1 construct: The tag could be cut by HRV 3C protease 'if desired'; also called kinase-dead full-length STK4; MST1; source: E. coli BL21 (DE3), purified (Ni-NTA, SEC)
T1 sequence (looked up): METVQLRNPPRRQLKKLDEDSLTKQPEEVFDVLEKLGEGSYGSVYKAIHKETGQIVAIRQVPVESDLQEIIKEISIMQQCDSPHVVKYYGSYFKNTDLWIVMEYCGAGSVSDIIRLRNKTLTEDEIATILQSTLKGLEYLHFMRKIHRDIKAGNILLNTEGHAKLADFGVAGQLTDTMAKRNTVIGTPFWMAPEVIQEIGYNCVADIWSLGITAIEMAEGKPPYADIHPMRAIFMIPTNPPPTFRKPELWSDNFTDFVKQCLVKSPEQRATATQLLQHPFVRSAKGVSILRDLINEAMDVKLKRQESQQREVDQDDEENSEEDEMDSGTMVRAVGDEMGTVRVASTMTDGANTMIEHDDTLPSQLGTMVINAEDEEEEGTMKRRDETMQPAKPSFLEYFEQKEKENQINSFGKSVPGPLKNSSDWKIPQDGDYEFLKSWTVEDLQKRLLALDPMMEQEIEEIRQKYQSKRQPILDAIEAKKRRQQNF

[2] = target: T2, STK4 (residues 11–326) K59R (human, UniProt Q13043 11-326, K59R); test: as above
T2 construct: Monomer-dimer equilibrium in solution; dimer in the crystal; also called STK4 KD; source: E. coli BL21 (DE3), purified (Ni-NTA, SEC)
T2 sequence (looked up): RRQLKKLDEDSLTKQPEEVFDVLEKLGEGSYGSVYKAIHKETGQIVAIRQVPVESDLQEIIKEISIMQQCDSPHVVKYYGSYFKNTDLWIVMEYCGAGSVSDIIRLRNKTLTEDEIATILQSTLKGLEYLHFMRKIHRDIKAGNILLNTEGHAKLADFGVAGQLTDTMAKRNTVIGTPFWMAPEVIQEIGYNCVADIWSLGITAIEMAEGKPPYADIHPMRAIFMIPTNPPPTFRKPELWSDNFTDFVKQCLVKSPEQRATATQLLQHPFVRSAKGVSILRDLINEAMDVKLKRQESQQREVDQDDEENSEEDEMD

[3] = target: T3, STK4 (residues 1–326) K59R (human, UniProt Q13043 1-326, K59R); test: SEC; each protein alone and the mixture at matched concentrations on Superdex 200 Increase 10/300 GL or Superdex 75 Increase 10/300 GL; a forward shift or increase of the peak read qualitatively; fractions on SDS-PAGE (Fig. 1c: 20 μM HOIP RING2-LDD, 30 μM STK4 KD, Superdex 75 Increase)
T3 construct: also called KD; source: E. coli BL21 (DE3), purified (Ni-NTA, SEC)
T3 sequence (looked up): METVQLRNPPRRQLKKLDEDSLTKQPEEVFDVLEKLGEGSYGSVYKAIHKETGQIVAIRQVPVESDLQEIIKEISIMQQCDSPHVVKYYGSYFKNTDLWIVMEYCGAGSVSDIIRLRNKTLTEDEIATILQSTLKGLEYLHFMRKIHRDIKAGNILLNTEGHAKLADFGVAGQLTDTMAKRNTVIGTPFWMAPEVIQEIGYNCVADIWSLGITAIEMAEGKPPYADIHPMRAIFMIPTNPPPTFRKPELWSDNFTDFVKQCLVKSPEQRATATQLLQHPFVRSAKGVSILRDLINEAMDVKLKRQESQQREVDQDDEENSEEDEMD

binding result [1]: binds | binding result [2]: binds | binding result [3]: binds
B1: HOIP (residues 854–1072) (domain or fragment, UniProt Q96EP0 854-1072, looked up)
chain: EYQAQGLAMYLQENGIDCPKCKFSYALARGGCMHFHCTQCRHQFCSGCYNAFYAKNKCPEPNCRVKKSLHGHHPRDCLFYLRDWTALRLQKLLQDNNVMFNTEPPAGARAVPGGGCRVIEQKEVPNGLRDEACGKETPAGYAGLCQAHYKEYLVSLINAHSLDPATLYEVEELETATERYLHVRPQPLAGEDPPAYQARLLQKLTEEVPLGQSIPRRRK
notes: also called HOIP RING2-LDD; source: E. coli BL21 (DE3), purified (glutathione resin, SEC)

From article PMC12441119 (Cell Discovery, 2025)
